According to patent US20220332804A1 (CSL INNOVATION, published 2022):
Positions count from the first letter of the chain named.

Columns and labels:
Assay in all cases: SPR, mAb captured, C2 mutant analyte;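 note: Anti-C2 mAbs captured on goat anti-human IgG Biacore CM5 chips, alanine or serine C2 surface mutants flowed over at 37 °C, double-referenced sensorgrams fitted to a 1:1 binding model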
human C2 K443A = target: T1, human C2 K443A (human, UniProt P06681 21-752)
T1 sequence: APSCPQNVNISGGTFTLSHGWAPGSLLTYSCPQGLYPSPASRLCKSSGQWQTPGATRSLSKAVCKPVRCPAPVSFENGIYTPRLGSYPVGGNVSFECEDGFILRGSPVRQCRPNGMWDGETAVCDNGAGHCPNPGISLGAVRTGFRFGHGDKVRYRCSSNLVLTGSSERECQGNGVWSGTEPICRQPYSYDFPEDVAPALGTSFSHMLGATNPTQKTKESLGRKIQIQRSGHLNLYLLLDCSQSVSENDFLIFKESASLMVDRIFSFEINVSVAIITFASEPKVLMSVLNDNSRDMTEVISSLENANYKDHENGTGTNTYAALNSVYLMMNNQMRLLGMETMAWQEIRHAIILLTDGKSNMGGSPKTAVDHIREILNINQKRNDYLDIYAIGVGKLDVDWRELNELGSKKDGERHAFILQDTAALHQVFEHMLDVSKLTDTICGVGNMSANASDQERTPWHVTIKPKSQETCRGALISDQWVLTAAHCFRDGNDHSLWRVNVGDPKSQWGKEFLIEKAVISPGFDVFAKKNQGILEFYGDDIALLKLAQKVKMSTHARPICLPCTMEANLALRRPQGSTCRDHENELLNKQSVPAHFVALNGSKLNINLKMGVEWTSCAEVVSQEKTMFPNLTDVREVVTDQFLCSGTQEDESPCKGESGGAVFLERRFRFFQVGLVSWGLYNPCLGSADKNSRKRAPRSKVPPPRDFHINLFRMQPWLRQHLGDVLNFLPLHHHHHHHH

human C2 L620A = target: T2, human C2 L620A (human, UniProt P06681 21-752)
T2 sequence: T1 sequence with A423K, L600A

human C2 G677A = target: T3, human C2 G677A (human, UniProt P06681 21-752)
T3 sequence: T1 sequence with A423K, G657A

human C2 R434A = target: T4, human C2 R434A (human, UniProt P06681 21-752)
T4 sequence: T1 sequence with R414A, A423K

binding result (human C2 K443A): no binding
Kd (human C2 L620A): 30.8 nM
Kd (human C2 G677A): 28.1 nM
Kd (human C2 R434A): 230 nM
B1: RF16-214 (antibody, V domains shown)
VH: EVQLLESGGGLVQPGGSLRLSCAASGFTFSWYQMMWVRQAPGKGLEWVSRIYPSGGGTAYADSVKGRFTISRDNSKNTLYLQMNSLRAEDTAVYYCARDAGYGDNWGQGTLVTVSS
VL: QSALTQPPSVSVSPGQTASITCSGDKLGEKYASWYQQKAGQSPVMVIYQDRKRPSGIPERFSGSNSGNTATLTISGTQAMDEADYYCQAWDTRAVVFGGGTKLTVLG
